Laboratory results from patent publication US20210364527A1 (QUANTUM SI, published 2021).
Read-outs that look alike come from different tables or passages of the source.

T1: F peptide FAKLDEESILKQK (XAKLDEESILKQK, X = F)
T1 construct: Immobilized on the biolayer interferometry sensor
T1 peptide: FAKLDEESILKQK

T2: IA peptide IAKLDEESILKQK (XAKLDEESILKQK, X = I)
T2 construct: Immobilized on the biolayer interferometry sensor
T2 peptide: IAKLDEESILKQK

T3: LA peptide LAKLDEESILKQK (XAKLDEESILKQK, X = L)
T3 construct: Immobilized on the biolayer interferometry sensor
T3 peptide: LAKLDEESILKQK

T4: VA peptide VAKLDEESILKQK (XAKLDEESILKQK, X = V)
T4 construct: Immobilized on the biolayer interferometry sensor
T4 peptide: VAKLDEESILKQK

T5: W peptide WAKLDEESILKQK (XAKLDEESILKQK, X = W)
T5 construct: Immobilized on the biolayer interferometry sensor
T5 peptide: WAKLDEESILKQK


Key:
Experiment in all cases: BLI heatmap
[1] = biological target: T1, F peptide FAKLDEESILKQK (XAKLDEESILKQK, …)
[2] = biological target: T2, IA peptide IAKLDEESILKQK …
[3] = biological target: T3, LA peptide LAKLDEESILKQK …
[4] = biological target: T1, F peptide FAKLDEESILKQK (XAKLDEESILKQK, …)
[5] = biological target: T2, IA peptide IAKLDEESILKQK …
[6] = biological target: T4, VA peptide VAKLDEESILKQK …
[7] = biological target: T3, LA peptide LAKLDEESILKQK …
[8] = biological target: T5, W peptide WAKLDEESILKQK (XAKLDEESILKQK, …)

Row | Binder | binding result [1] | binding result [2] | binding result [3] | binding result [4] | binding result [5] | binding result [6] | binding result [7] | binding result [8]
1 | PS566 (other) MSSPSSLDDVQVSTSRAKPANETRTRKQPPYAVIVENDDHHTFLYVIEALMKVCGHAPEKGFVLAQQIHTQGKAMVWSGTLELAELKRDQLRGFGPDNYAPRPVTFPLGVTIEPLP | binds | binds | binds | – | – | – | – | –
2 | PS419 (other) MEKEQSLCKEKTHVELSEPKHYKVVFHNDDFTTMDFVVKVLQLVFFKSQLQAEDLTMKIHLEGSATAGIYSYDIAQSKAQKTTQMAREEGFPLRLTVEPEDN | – | – | – | binds | no binding | no binding | – | –
3 | PS565 (other) MSEFDHEHSGDTSVADPIVTTKTAPKPQKHAENETETRRQPPYNVIILNDEEHTFDYVIELLCKVFRHSLATAQELTWRIHLTGRAVVLTTHKELAELKRDQVLAYGPDPRMSVSKGPLDCFIEPAPGG | binds | binds | binds | – | – | – | – | –
4 | PS412 (other) MATKREGSTLLEPTAAKVKPPPLYKVLLLNDDYTPMEFVVLVLKKFFGIDQERATQIMLKVHTEGVGVCGVYPRDIAHTKVEQVVDFARQHQHPLQCTMEES | – | – | – | binds | no binding | no binding | – | –
5 | PS434 (other) MSRLPWKQEAKFAATVIIDFPDATLEAPTIEKKEATEQQIEMPWNVVVHNDPVNLMSYVTMVFQRVFGYPRERAEKHMLEVHHSGRSILWSGLRERAELYVQQLHGYLLLATIEKTV | – | – | – | binds | no binding | no binding | – | –
6 | PS408 (other) MTDPPSKGREDVDLATRTKPKTQRPPLYKVLLLNDDFTPMEFVVHILERLFGMTHAQAIEIMLTVHRKGVAVVGVFSHEIAETKVAQVMELARRQQHPLQCTMEKE | – | – | – | binds | no binding | no binding | – | –
7 | PS422 (other) MTQIKPQTIPDTDVISQTQSDWQMPDLYAVIMHNDDYTTMDFVVFLLNAVFDKPIEQAYQLMMQIHQTGRAVVAILPYEIAEMKVDEATSLAEQEQFPLFISIEQA | – | – | – | binds | no binding | no binding | – | –
8 | PS560 (other) MTETITTPAERTQTQAEPRSDRAWLWNVVLLDDDEHTYEYVIRMLHTLFGMPVERAFRLAEEVDARGRAVVLTTHKEHAELKRDQVHAFGKDALIASCAGSMSAVLEPAECGSDDED | no binding | binds | binds | – | – | – | – | –
9 | PS550 (other) MPTFTEPEVVNDTRILPPYHVILLNDDDHTYEYVIHMLQTLFGHPQERGFQLAVEVDKKGKAIVFTTSKEHAEFKRDQIHAFGADPLSSKNCKGSMSAVIEPSF | – | – | binds | – | – | – | – | –
10 | PS546 (other) MSDTITLPGRPEVERDERTRRQPPYNVILHNDDDHTFEYVIVMLNQLFGYPPEKGYEMAKEVHLNGRVIVLTTSKEHAELKRDQIHAFGPDPFSSKDCKGSMSASIEPAY | no binding | binds | binds | – | – | – | – | –
11 | PS395 (other) MTVSQSKTQGAPAAQSATELEYEGLWRVVVLNDPVNLMSYVVLVFKKVFGFDETTARKHMLEVHEQGRSVVWSGMREKAEAYAFTLQQWHLTTVLEQDEVR | – | – | – | binds | no binding | no binding | – | –
12 | PS418 (other) MSDHNIDHDTSVAVHLDVVVREPPMYRVVLLNDDFTPMEFVVELLMHFFRKTAEQATQIMLNIHHEGVGVCGTYPREIAETKVAQVHQHARTNGHPLKCRMEPS | – | – | – | binds | no binding | no binding | – | –
13 | PS393 (other) MSDEDGEDGDENAVGIATRTRTRTKKPTPYRVLLLNDDYTPMEFVVLVLQRFFRMSIEDATRVMLQVHQKGVGVCGVFTYEVAETKVSQVIDFARQNQHPLQCTLEKA | – | – | – | binds | no binding | no binding | – | –
14 | PS575 (other) MASTQTPDLNEITEESTKSTGGPWRVVLWDDNEHTYEYVIEMLMEICTMTVEKAFLHAVQVDQEKRTVVFSGEFEHAEHVQERILTYGADPRMSNSKGSMSATLEK | no binding | binds | binds | – | – | – | – | –
15 | PS433 (other) MMSSLKECSIQALPSLDEKTKTEEDLSVPWKVIVLNDPVNLMSYVVMVFRKVFGYNENKATKHMMEVHQLGKSVLWTGQREEAECYAYQLQRWRLQTILEKDD | – | – | – | binds | no binding | no binding | – | –
16 | PS392 (other) MSVEIIEKRSTVRKLAPRYRVLLHNDDFNPMEYVVQTLMATVPSLTQPQAVNVMMEAHTNGMGLVIVCALEHAEFYAETLNNHGLGSSIEPDD | – | – | – | binds | no binding | no binding | no binding | –
17 | PS556 (other) MGDSNTSVAEPGEVTVVTTKPAPKKAKPKRQPKYHVVLWNDDDHTYEYVILMMHELFGHPVEKGFQIAKTVDADGRAICLTTTKEHAELKRDQIHAYGKDELIARCRGSMSSTIEPEC | no binding | binds | binds | – | – | – | – | –
18 | PS414 (other) MQAAGNEPPDPQNPGDVGNGGDGGNQDGSNTGVVVKTRTRTRKPAMYKVLMLNDDYTPMEFVVHVLERFFQKNREEATRIMLHVHRRGVGVCGVYTYEVAETKVTQVMDLARQNQHPLQCTIEKE | – | – | – | binds | no binding | no binding | – | binds
19 | PS407 (other) MPSNKRQMCLSDIKNSFNESGIVDWHISPRLANEPSEEGDSDLAVQTVPPELKRPPLYAVVLLNDDYTPMEFVIEILQQYFAMNLDQATQVMLTVHYEGKGVAGVYPRDIAETKANQVNNYARSQGHPLLCQIEPKD | – | – | – | binds | no binding | no binding | – | –
20 | PS394 (other) MAERRDTGDDEGTGLGIATKTRSKTKKPTPYRVLMLNDDYTPMEFVVLCLQRFFRMNMEEATRVMLHVHQKGVGVCGVFSYEVAETKVGQVIDFARANQHPLQCTLEKA | – | – | – | binds | no binding | no binding | – | –
21 | PS548 (other) MSDTITLPEEKTDVRTKRQPPYHVILLNDDDHTYQYVIYMLQTLFGHPPETGFKMAQEVDKTGRVIVDTTSLERAELKRDQIHAFGPDPYIERCKGSMSAMIEPSE | no binding | binds | binds | – | – | – | – | –
22 | PS425 (other) MTHYFSNILRDQESPKINPKELEQIDVLEEKEHQIILYNDDVNTFEHVIDCLVKICEHNYLQAEQCAYIVHHSGKCSVKTGSLDELVPKCNALLEEGLSAEVV | – | – | – | binds | no binding | no binding | – | –
23 | PS549 (other) MSESITTLPKKSRRLKEEEEQKTKRQPPYNVILLNDDDHTFEYVIFMLQKLFGHPPERGMQMAKEVHTTGRVIVMTTALELAELKRDQIHAFGPDPLIDRCKGSMSATIEPAPI | no binding | binds | binds | – | – | – | – | –
24 | PS570 (other) MTGAGASQPSILEETEVRPRLSDGPWKVVLWDDDFHTYEYVIEMLMDVCQMPWEKAFQHAVEVDTRKKTIVFSGELEHAEFVHERILNYGPDPRMGSSKGSMTATLEQ | no binding | binds | binds | – | – | – | – | –
25 | PS578 (other) MSGTVVESKPRNSTQLAPRWKVIVHDDPVTTFDFVLGVLRRVFAKPPGEARRITREAHDTGSALVDVLALEQAEFRRDQAHSLARAEGFPLTLTLEPAD | binds | – | binds | – | – | – | – | –
26 | PS409 (other) MPARLTDIEGEPNTDPVEDVLLADPELKKPQMYAVVMYNDDYTPMEFVVDVLQNHFKHTLDSAISIMLAIHQQGKGIAGIYPKDIAETKAQTVNRKARQAGYPLLSQIEPQG | – | – | – | binds | no binding | no binding | – | –
